Assay results published in patent US20240270857A1 (CHIA TAI TIANQING PHARMACEUTICAL GROUP, published 2024).

B1: BI655130 (antibody, human IgG1, kappa, L234A L235A)
heavy: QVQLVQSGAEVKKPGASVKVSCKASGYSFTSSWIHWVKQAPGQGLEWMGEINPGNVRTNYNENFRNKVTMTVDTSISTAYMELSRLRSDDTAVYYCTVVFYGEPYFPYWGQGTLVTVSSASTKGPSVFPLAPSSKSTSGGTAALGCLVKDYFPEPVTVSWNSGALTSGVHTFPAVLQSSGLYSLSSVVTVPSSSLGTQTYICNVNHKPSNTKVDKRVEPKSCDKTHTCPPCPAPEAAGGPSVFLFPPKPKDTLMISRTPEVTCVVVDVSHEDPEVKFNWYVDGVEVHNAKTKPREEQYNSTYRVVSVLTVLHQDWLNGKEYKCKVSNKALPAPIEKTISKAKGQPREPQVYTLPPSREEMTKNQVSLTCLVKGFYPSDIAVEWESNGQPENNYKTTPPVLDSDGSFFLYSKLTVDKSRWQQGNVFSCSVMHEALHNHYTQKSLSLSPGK
light: QIVLTQSPGTLSLSPGERATMTCTASSSVSSSYFHWYQQKPGQAPRLWIYRTSRLASGVPDRFSGSGSGTDFTLTISRLEPEDAATYYCHQFHRSPLTFGAGTKLEIKRTVAAPSVFIFPPSDEQLKSGTASVVCLLNNFYPREAKVQWKVDNALQSGNSQESVTEQDSKDSTYSLSSTLTLSKADYEKHKVYACEVTHQGLSSPVTKSFNRGEC
notes: also called Spesolimab
B2: hz72C1-1.3 (antibody, human IgG4 S228P, kappa)
heavy: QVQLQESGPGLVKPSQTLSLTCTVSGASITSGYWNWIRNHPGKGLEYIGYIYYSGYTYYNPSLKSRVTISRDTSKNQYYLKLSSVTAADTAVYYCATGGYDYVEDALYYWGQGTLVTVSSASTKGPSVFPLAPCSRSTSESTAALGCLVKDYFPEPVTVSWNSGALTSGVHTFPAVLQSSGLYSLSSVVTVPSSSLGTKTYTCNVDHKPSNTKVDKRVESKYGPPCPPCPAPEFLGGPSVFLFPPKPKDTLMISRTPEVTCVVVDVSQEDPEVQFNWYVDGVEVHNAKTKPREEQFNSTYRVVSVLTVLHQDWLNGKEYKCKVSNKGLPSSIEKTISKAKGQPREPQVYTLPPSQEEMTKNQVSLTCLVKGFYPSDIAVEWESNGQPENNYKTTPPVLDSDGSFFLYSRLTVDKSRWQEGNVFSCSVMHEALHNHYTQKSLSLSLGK
light: DIQMTQSPSSLSASVGDRVTITCRASSNVRYMYWYQQKPGKAPKLWIYLTSNLASGVPSRFSGSGSGTSYTLTISSLQPEDFATYYCQQFTTSPYTFGQGTKLEIKRTVAAPSVFIFPPSDEQLKSGTASVVCLLNNFYPREAKVQWKVDNALQSGNSQESVTEQDSKDSTYSLSSTLTLSKADYEKHKVYACEVTHQGLSSPVTKSFNRGEC
notes: Humanized, human IgG4 / kappa

Experiments:
[1] = molecular target: T1, CynoIL36R-ECD mFc recombinant protein (cynomolgus monkey); assay: ELISA, plate coated with CynoIL36R-ECD mFc, HRP-protein A/G, OD450
T1 construct: Made in ExpiCHO, purified on Protein A; also called cynomolgus IL-36R extracellular region with mouse antibody heavy chain Fc
T1 chain: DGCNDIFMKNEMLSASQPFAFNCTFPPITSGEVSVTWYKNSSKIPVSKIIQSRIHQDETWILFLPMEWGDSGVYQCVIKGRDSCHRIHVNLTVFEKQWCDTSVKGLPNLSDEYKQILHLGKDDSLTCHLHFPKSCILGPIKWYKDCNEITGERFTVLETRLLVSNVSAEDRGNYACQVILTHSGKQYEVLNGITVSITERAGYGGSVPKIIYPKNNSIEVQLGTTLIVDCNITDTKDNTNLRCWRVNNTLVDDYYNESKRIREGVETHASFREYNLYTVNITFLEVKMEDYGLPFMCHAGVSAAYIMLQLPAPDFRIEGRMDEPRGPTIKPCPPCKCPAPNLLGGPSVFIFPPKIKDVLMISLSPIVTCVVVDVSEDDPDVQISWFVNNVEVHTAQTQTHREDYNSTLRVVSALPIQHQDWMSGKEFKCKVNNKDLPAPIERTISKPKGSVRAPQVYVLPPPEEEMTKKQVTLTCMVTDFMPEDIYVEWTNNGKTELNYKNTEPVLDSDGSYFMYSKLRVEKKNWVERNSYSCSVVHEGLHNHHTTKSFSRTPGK
Procedure: The binding activity of anti-IL-36R antibodies to IL-36R was analyzed by ELISA using human IL-1Rrp2/IL-1R6 protein, His Tag (ACROBiosystems, IL2-H52H6) and CynoIL36R-ECD mFc (for detection of chimeric and humanized antibodies), and hIL36R-ECD hFc and CynoIL36R-ECD hFc protein (for detection of hybridoma antibodies) as antigens. A 96-well plate (Costar, 9018) was coated with 2 μg/mL antigen at 100 μL/well and incubated overnight at 4° C. After the 96-well plate was washed with a washing buffer (PBS containing 0.05% v/v Tween 20), a blocking buffer (PBS containing 2% bovine serum albumin) was added for blocking at 37° C. for 2 h. After the 96-well plate was washed with the washing buffer, 100 μL of the gradient diluted anti-IL-36R antibody of the present disclosure or the reference antibody BI655130 (the initial concentration of the antibody was 66 nM, 4-fold gradient dilution) was added to each well, and the plate was incubated at room temperature for 1 h. After the 96-well plate was washed with the washing buffer, 100 μL of horseradish peroxidase-conjugated recombinant protein A/G (TheroScientific, 32490) was added to each well, and the plate was incubated at room temperature for 1 h. After the 96-well plate was washed with the washing buffer, 100 μL of a TMB solution (Thermo, 00-4201-56) was added to each well, and the plate was incubated at room temperature for 2 min. Finally, 100 μL of a stop solution (2 N H₂SO₄) was added to each well to stop the reaction. Absorbance was read at 450 nm using a microplate reader (PE, Envision), the resulting data was analyzed using GraphPad Prism, and EC₅₀ was calculated. Binding EC₅₀ of the chimeric anti-IL-36R antibodies to hIL-36R in an ELISA assay is shown in FIG. 1. and binding EC₅₀ of the chimeric anti-IL-36R antibodies to CynoIL-36R in an ELISA assay is shown in FIG. 2. The binding of BI655130 is shown as a control, and the binding of IgG4 is shown as a negative control.

[2] = molecular target: T2, cynomolgus IL-36R overexpressed on 293T-CynoIL36R-NFκB cells (cynomolgus monkey); assay: cell-based or functional assay
T2 chain: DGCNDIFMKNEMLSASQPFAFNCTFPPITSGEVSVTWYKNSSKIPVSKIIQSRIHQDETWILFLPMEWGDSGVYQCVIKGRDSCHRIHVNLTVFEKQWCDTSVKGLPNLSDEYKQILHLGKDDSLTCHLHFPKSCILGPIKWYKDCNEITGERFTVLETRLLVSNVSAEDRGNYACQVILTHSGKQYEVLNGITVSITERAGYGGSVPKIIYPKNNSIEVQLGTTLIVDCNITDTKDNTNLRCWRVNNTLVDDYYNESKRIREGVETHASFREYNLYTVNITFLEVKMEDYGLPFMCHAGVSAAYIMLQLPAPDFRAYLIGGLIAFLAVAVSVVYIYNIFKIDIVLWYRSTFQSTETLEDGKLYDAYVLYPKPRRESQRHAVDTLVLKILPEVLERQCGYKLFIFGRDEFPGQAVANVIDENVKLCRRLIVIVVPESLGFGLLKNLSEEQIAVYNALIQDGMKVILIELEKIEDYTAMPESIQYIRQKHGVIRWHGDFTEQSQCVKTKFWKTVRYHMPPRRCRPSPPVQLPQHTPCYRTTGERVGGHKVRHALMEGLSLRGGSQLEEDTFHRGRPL

[3] = molecular target: T3, IL-36R naturally expressed on OVCAR8 cells and on normal human epidermal keratinocytes (NHK cells) (human, UniProt Q9HB29 20-575); assay: cell-based or functional assay
T3 sequence (looked up): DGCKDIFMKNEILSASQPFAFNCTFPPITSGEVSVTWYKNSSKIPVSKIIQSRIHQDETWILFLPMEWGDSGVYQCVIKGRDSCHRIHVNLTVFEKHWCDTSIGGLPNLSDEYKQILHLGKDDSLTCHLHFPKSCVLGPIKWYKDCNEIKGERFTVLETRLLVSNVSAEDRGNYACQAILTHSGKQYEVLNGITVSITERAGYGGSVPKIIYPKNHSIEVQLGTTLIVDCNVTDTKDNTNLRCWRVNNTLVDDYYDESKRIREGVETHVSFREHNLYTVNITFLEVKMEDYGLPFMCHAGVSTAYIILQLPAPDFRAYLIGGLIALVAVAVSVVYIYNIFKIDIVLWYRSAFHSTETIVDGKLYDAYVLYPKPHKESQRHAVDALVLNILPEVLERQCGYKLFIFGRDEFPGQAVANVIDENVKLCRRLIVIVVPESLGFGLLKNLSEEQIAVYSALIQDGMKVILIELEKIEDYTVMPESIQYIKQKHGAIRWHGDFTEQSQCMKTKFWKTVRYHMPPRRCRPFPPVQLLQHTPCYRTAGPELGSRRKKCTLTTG

| Binder | EC50 [1] [nM] | IC50 (M); hIL36α; NFκB-luciferase [2] [M] | IC50 (M); hIL36β; NFκB-luciferase [2] [M] | IC50 (M); hIL36γ; NFκB-luciferase [2] [M] | Maximum inhibition rate %; hIL36α; NFκB-luciferase [2] [%] | Maximum inhibition rate %; hIL36β; NFκB-luciferase [2] [%] | Maximum inhibition rate %; hIL36γ; NFκB-luciferase [2] [%] | IC50 (M); hIL36α; IL-8 production [3] [M] | IC50 (M); hIL36αβγ; IL-8 production [3] [M] | IC50 (M); hIL36β; IL-8 production [3] [M] | IC50 (M); hIL36γ; IL-8 production [3] [M] | Maximum inhibition rate %; hIL36α; IL-8 production [3] [%] | Maximum inhibition rate %; hIL36αβγ; IL-8 production [3] [%] | Maximum inhibition rate %; hIL36β; IL-8 production [3] [%] | Maximum inhibition rate %; hIL36γ; IL-8 production [3] [%] |
| --- | --- | --- | --- | --- | --- | --- | --- | --- | --- | --- | --- | --- | --- | --- | --- |
| B1 | 1.97 | 2.77e-08 | 5.63e-08 | 1.19e-08 | 49.1 | 60.8 | 83.1 | 6.33e-11 | 7.27e-11 | 3.29e-11 | 2.63e-11 | 101 | 90.7 | 97.1 | 107 |
| B2 | 2.86 | 3.13e-09 | 2.7e-09 | 1.65e-09 | 101 | 101 | 103 |  |  |  |  |  |  |  |  |
